Test results taken from article PMC5531539 (PLoS ONE, 2017).
Substitutions are numbered along the chain they refer to.

B1: bH1 Fab (parent) (Fab, V domains shown)
VH: not shown
VL: DIQMTQSPSSLSASVGDRVTITCRASQDIPRSISGYVAWYQQKPGKAPKLLIYWGSYLYSGVPSRFSGSGSGTDFTLTISSLQPEDFATYYCQQHYTTPPTFGQGTKVEIK
notes: Fab heavy chain of bH1; numbers count on: Bostrom et al. [8]; Fab light chain of bH1; also called WT; source: CHO-3E7, co-transfected, His-tag purified
B2: bH1 Fab HD98W HY33W HG99M (Fab, V domains shown)
VH: EVQLVESGGGLVQPGGSLRLSCAASGFNIKDTWIHWVRQAPGKGLEWVARIYPTNGYTRYADSVKGRFTISADTSKNTAYLQMNSLRAEDTAVYYCSRWGGWMFYAMDYWGQGTLVTVSS
VL: B1 VL
notes: as the heavy chain of m4 with the stated changes; numbers count on: Bostrom et al. [8]; as the light chain of m4; source: CHO-3E7, co-transfected, His-tag purified
B3: bH1 Fab HD98W HY33W HG99D (Fab, V domains shown)
VH: B2 VH with M103D
VL: B1 VL
notes: as the heavy chain of m4 with the stated changes; numbers count on: Bostrom et al. [8]; as the light chain of m4; also called best triple mutant (bH1-VEGF); source: CHO-3E7, co-transfected, His-tag purified
B4: bH1 Fab HD98Y HD31K LI29R (Fab, V domains shown)
VH: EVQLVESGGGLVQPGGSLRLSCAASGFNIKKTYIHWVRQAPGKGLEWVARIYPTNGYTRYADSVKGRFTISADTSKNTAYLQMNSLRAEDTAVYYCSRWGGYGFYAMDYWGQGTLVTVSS
VL: B1 VL with I29R
notes: as the heavy chain of m4 with the stated changes; numbers count on: Bostrom et al. [8]; as the light chain of m4 with the stated change; also called best triple mutant (bH1-HER2); source: CHO-3E7, co-transfected, His-tag purified
B5: bH1 Fab HD98K HD31K LI29K (Fab, V domains shown)
VH: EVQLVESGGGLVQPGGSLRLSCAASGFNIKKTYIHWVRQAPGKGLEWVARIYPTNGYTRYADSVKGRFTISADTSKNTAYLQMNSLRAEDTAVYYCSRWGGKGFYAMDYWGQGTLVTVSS
VL: B1 VL with I29K
notes: as the heavy chain of m4 with the stated changes; numbers count on: Bostrom et al. [8]; as the light chain of m4 with the stated change; source: CHO-3E7, co-transfected, His-tag purified
B6: bH1 Fab HD98Y HD31K LI29K (Fab, V domains shown)
VH: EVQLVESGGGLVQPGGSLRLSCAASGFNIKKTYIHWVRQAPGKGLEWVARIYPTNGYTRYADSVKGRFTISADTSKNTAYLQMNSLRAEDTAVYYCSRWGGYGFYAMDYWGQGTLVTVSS
VL: B1 VL with I29K
notes: as for B5
B7: bH1 Fab HD98F HD31K LI29R (Fab, V domains shown)
VH: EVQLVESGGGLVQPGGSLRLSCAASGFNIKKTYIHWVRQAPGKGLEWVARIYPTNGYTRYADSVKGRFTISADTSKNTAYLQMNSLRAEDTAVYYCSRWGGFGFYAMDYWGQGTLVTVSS
VL: B1 VL with I29R
notes: as for B5
B8: bH1 Fab HD98K HD31K LI29R (Fab, V domains shown)
VH: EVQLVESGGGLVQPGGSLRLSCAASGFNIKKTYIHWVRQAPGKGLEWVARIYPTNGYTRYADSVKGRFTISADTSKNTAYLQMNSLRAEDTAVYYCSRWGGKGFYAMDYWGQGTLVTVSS
VL: B1 VL with I29R
notes: as for B5
B9: bH1 Fab HD98F HD31K LI29K (Fab, V domains shown)
VH: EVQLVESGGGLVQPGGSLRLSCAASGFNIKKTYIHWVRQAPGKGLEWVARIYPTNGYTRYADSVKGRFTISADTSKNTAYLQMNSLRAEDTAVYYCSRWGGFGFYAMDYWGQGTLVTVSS
VL: B1 VL with I29K
notes: as for B5
B10: bH1 Fab LS30dL (Fab, V domains shown)
VH: not shown
VL: B1 VL with S34L
notes: as the heavy chain of Sm3; bH1 Fab light chain, parent as in Sm3; numbers count on: Bostrom et al; source: CHO-3E7, co-transfected, purified (His tag)
B11: bH1 Fab LS30dM (Fab, V domains shown)
VH: not shown
VL: B1 VL with S34M
notes: as for B10

Molecular target: T1, Full-length isoform 165 of human VEGF-A (Homo sapiens, UniProt P15692-4, strain)
T1 construct: human vascular endothelial growth factor A, 165 amino acid isoform (VEGF165); also called VEGF165
Experiment: SPR; BioRad ProteOn XPR36; HER2 or VEGF amine-coupled to a GLC chip (about 150 RU); Fab as analyte, 3-fold dilutions from 30, 60 or 120 nM; 25C; PBS, 0.05% Tween 20, 3.4 mM EDTA; 1:1 binding model, KD from koff/kon
Details: both partners purified
T1 sequence (P15692 whole entry, looked up, change not shown, canonical isoform): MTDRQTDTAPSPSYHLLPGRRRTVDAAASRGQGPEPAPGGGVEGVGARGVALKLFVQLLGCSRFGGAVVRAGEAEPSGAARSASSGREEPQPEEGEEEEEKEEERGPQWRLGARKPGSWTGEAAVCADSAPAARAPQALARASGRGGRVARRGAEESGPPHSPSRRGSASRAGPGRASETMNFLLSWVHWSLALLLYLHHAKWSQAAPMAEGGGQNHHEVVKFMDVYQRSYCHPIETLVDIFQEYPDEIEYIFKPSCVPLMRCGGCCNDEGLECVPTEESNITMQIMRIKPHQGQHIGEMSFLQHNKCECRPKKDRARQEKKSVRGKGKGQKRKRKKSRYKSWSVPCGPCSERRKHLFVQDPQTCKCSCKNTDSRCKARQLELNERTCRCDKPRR

Kd [nM] | koff [s⁻¹] | kon [M⁻¹ s⁻¹] | Binder
44 ± 17 | 0.009 | 220000 | B1
1.2 ± 0.2 | 0.00034 | 290000 | B2
0.5 ± 0.1 | 7e-05 | 160000 | B3

Molecular target: T2, Recombinant soluble human HER2 extracellular domain (Homo sapiens, UniProt P04626)
T2 construct: human HER2 (ErbB2), soluble extracellular domain; also called HER2 ectodomain; Receptor-tyrosine kinase ErbB2 soluble ectodomain; source: bought: eBioscience
Experiment: as above
Details: both partners purified

Kd [nM] | koff [s⁻¹] | kon [M⁻¹ s⁻¹] | Binder
3.6 ± 0.6 | 0.0013 | 370000 | B1
0.07 ± 0.01 | 0.00025 | 3.8e+06 | B4
0.15 ± 0.05 | 0.00039 | 2.3e+06 | B5
0.14 ± 0.09 | 0.00028 | 2.2e+06 | B6
0.11 ± 0.02 | 0.00029 | 2.7e+06 | B7
0.11 ± 0.02 | 0.00045 | 4.4e+06 | B8
0.14 ± 0.05 | 0.00029 | 2.2e+06 | B9

Molecular target: T3, Full-length isoform 165 of human VEGF-A (Homo sapiens, UniProt P15692-4, strain)
T3 construct: vascular endothelial growth factor A, human, 165 amino acid isoform; also called VEGF165; source: produced recombinantly and purified
Experiment: SPR; BioRad ProteOn XPR36, GLC chip; HER2 and VEGF amine-coupled (about 150 RU); Fab variants injected as analyte in 3-fold dilutions (top 30, 60 or 120 nM); 25C, PBS with 0.05% Tween 20 and 3.4 mM EDTA; 1:1 model; KWT/K uses the parent Fab's K of the same batch
Details: both partners purified
T3 sequence (P15692 whole entry, looked up, change not shown, canonical isoform): as above

binding result | Binder
no binding | B10
no binding | B11
